Experimental findings from patent publication US20190359693A1 are described below.

Test [1] concerns the target hemagglutinin (HA) of influenza B/Florida/04/06 (Yamagata) (influenza B virus). In words: cell-based or functional assay.
Test [2] has as its target hemagglutinin (HA) of influenza B/Brisbane/60/08 (Victoria) (influenza B virus). The experiment in a line: cell-based or functional assay.
For test [3], the target named is hemagglutinin (HA) of influenza A/Wisconsin/67/05 (H3N2) (influenza A virus). The experiment in a line: cell-based or functional assay.
The target of test [4] is HA of H3N2 A/Brisbane/10/2007 (influenza A virus). In words: BLI steady state.
Test [5] has as its target HA of H3N2 A/Wisconsin/67/2005 (influenza A virus). In words: BLI steady state.
For test [6], the target named is HA of H7N3 A/NIBRG/60 (A/mallard/NL/12/00) (influenza A virus). In words: BLI steady state.
Test [7] deals with HA of H7N9 A/Hangzhou/1/2013 (influenza A virus). In words: BLI steady state.
Test [8] concerns the target HA of H1N1 A/Brisbane/59/07 (influenza A virus). In words: BLI steady state.
Test [9] deals with HA of H1N1 A/New Caledonia/20/1999 (influenza A virus). The experiment in a line: BLI steady state.
Test [10] deals with HA of B/Brisbane/60/2008 (Victoria) (influenza B virus). The experiment in a line: AlphaLISA competition vs SD1086.
Test [11] deals with HA of B/Florida/04/2006 (Yamagata) (influenza B virus). The experiment in a line: AlphaLISA competition vs SD1086. For orientation: Bead proximity is the source of the signal in Alpha formats.
Test [12] has as its target HA of H3N2 A/Brisbane/10/2007 (influenza A virus). In words: AlphaLISA competition vs CR8057.
The target of test [13] is HA of H3N2 A/Wisconsin/67/2005 (influenza A virus). The experiment in a line: AlphaLISA competition vs CR8057.
The target in test [14] is HA of B/Brisbane/60/2008 (Victoria) (influenza B virus). In words: AlphaLISA competition vs SD1085.
Test [15] concerns the target HA of B/Florida/04/2006 (Yamagata) (influenza B virus). The experiment in a line: AlphaLISA competition vs SD1085.
Test [16] concerns the target hemagglutinin (HA) of influenza virus H1N1 A/California/07/09 (influenza A virus). In words: cell-based or functional assay.
Test [17] addresses HA of B/Brisbane/60/2008 (Victoria) (influenza B virus). The experiment in a line: cell-based or functional assay.
In test [18] the target is HA of H3N2 A/Brisbane/10/2007 (influenza A virus). In words: cell-based or functional assay.
Test [19] addresses hemagglutinin (HA) of influenza A/Brisbane/10/07 (H3N2) (influenza A virus A/Brisbane/10/07 (H3N2)). The experiment in a line: cell-based or functional assay.
Test [20] has as its target HA of H3N2 A/Wisconsin/67/2005 (influenza A virus). The experiment in a line: cell-based or functional assay.
The target of test [21] is hemagglutinin (HA) of influenza virus H1N1 A/Puerto Rico/8/34-MA (influenza A virus). The experiment in a line: cell-based or functional assay.
The target of test [22] is hemagglutinin (HA) of influenza A/chicken/Germany/n/49 (H10N7) (influenza A virus A/chicken/Germany/n/49 (H10N7)). In words: cell-based or functional assay.
Test [23] deals with HA of B/Florida/04/2006 (Yamagata) (influenza B virus). The experiment in a line: cell-based or functional assay.
Test [24] addresses hemagglutinin (HA) of influenza A/waterfowl/Hong Kong/MPA892/06 (H4) (influenza A virus A/waterfowl/Hong Kong/MPA892/06 (H4)). The experiment in a line: cell-based or functional assay.
Test [25] addresses hemagglutinin (HA) of influenza A/New York/107/03 (PR8) (influenza A virus A/New York/107/03 (PR8)). In words: cell-based or functional assay.
The target in test [26] is HA of H7N3 A/NIBRG/60 (A/mallard/NL/12/00) (influenza A virus). In words: cell-based or functional assay.
The target in test [27] is hemagglutinin (HA) of influenza virus H3N2 A/Wisconsin/67/05 (influenza A virus). The experiment in a line: cell-based or functional assay.
In test [28] the target is hemagglutinin (HA) of influenza virus H5N1 A/Vietnam/1194/04 (influenza A virus). In words: cell-based or functional assay.
The target in test [29] is HA of H5N1 A/Vietnam/1194/04 (influenza A virus). In words: cell-based or functional assay.
Test [30] deals with HA of H1N1 A/Brisbane/59/07 (influenza A virus). The experiment in a line: cell-based or functional assay.
The target of test [31] is HA of H1N1 A/New Caledonia/20/1999 (influenza A virus). In words: cell-based or functional assay.
Test [32] deals with HA of B/Brisbane/60/2008 (Victoria) (influenza B virus). The experiment in a line: AlphaLISA competition vs SD1083.
Test [33] deals with HA of B/Florida/04/2006 (Yamagata) (influenza B virus). The experiment in a line: AlphaLISA competition vs SD1083.
Test [34] concerns the target HA of B/Brisbane/60/2008 (Victoria) (influenza B virus). In words: AlphaLISA competition vs SD1084.
Test [35] concerns the target HA of B/Florida/04/2006 (Yamagata) (influenza B virus). In words: AlphaLISA competition vs SD1084.
Test [36] concerns the target HA of H3N2 A/Brisbane/10/2007 (influenza A virus). The experiment in a line: AlphaLISA competition vs 39.29.
Test [37] has the same target. In words: AlphaLISA competition vs SD1038.
Test [38] addresses HA of B/Brisbane/60/2008 (Victoria) (influenza B virus). The experiment in a line: AlphaLISA competition vs SD1087.
For test [39], the target named is HA of B/Florida/04/2006 (Yamagata) (influenza B virus). In words: AlphaLISA competition vs SD1087.
In test [40] the target is HA of H3N2 A/Brisbane/10/2007 (influenza A virus). The experiment in a line: AlphaLISA competition vs SD1036.
Test [41] has the same target. In words: AlphaLISA competition vs CR8020.
Test [42] concerns the target HA of H3N2 A/Wisconsin/67/2005 (influenza A virus). The experiment in a line: AlphaLISA competition vs CR8020.
Test [43] concerns the target HA of B/Brisbane/60/2008 (Victoria) (influenza B virus). In words: AlphaLISA competition vs CR9114.
Test [44] addresses HA of H5N1 A/Vietnam/1203/2004 (influenza A virus). In words: AlphaLISA competition vs CR9114.
The target of test [45] is HA of H3N2 A/Brisbane/10/2007 (influenza A virus). In words: AlphaLISA competition vs CR9114.
In test [46] the target is HA of H3N2 A/Wisconsin/67/2005 (influenza A virus). In words: AlphaLISA competition vs CR9114.
For test [47], the target named is HA of H1N1 A/New Caledonia/20/1999 (influenza A virus). The experiment in a line: AlphaLISA competition vs CR9114.

Sequence of SD1036 (VHH) (VHH): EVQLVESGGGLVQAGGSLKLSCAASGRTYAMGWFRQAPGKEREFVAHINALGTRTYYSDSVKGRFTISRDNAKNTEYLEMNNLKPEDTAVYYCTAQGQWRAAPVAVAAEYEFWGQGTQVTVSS

Turning to CR9114-LALA (antibody), the ADCC induction (EC50 grade, FcγRIIIa reporter bioassay) in [1], in test [2] and in [3] was above 0.5 µg/mL in each case.
The Kd is a measure of binding affinity in units of concentration. Read a high Kd as lower affinity. In general, pIC50 refers to the negative decadic logarithm of the IC50, by convention in mol/L. Read a high pIC50 as a low IC50. Regarding SD1036 (VHH), the dissociation constant Kd amounted to 10 nM in test [4]; 122 nM in [5]; 2 nM in test [6]; 3 nM in [7]; 290 nM in [8]; 230 nM in test [9]. Further, the pIC50 in test [10], in test [11], in test [12], in test [13], in test [14] and in test [15] was below 7 each time. Moreover, the pIC50 in test [32] was below 7; in [33] it was below 7; in [34], below 7; in [35], below 7; in test [36] it was 9.2; in [37] it was 9.3. Also, the pIC50 in test [38] was below 7; in test [39], below 7; in [40], 9.1; in [41], 9.2; in test [42] it was 7.2; in test [43] it was below 7. The negative-log IC50 (pIC50) in test [44] was below 7; in [45], 9.4; in test [46], 7.8; in test [47], below 7. The neutralization titer in test [16], in [21], in test [27] and in test [28] was below 1000 nM throughout. Also, the VNA titer in [17] is above 1000 nM; in test [18] it was 86.7 nM; in [20], above 1000 nM; in test [23], above 1000 nM; in test [26], 10.9 nM; in test [29], above 1000 nM. The VNA titer in test [30] and in test [31] was above 1000 nM in each case. For the same substance, the VNA IC50 in [19] stood at 59 nM; in test [22], 10 nM; in [24], 44 nM; in [25] it was 11 nM.
In the case of CR9114 (antibody), the ADCC induction (EC50 grade, FcγRIIIa reporter bioassay) in test [1], in [2] and in test [3] was below 0.1 µg/mL each time.
